One test has as its system DLC1/PIN. Nature of the test: In vivo 32P-orthophosphate labeling and immunoprecipitation of T7-DLC1/PIN. Conditions: MCF-7 cells, coexpression with T7-DLC1/PIN. In kind it is cell-based, human. How it is done:
FIGS. 2A–2G—MapDLC1/PINg of interaction domains of Pak1 and DLC1/PIN. FIG. 2A: Identification of Pak1 domains that interact with DLC1/PIN. GST-Pak1 fusion proteins containing wild-type (amino acids 1–545), kinase domain (amino acids 270–545), N-terminal domain (amino acids 1–132), PIX binding domain (amino acids 132–270), Nck-binding domain (amino acids 1–75), Cdc42/Rac-interacting (CRIB) domain (amino acids 52–132), and auto-inhibitory domain (amino acids 75–149) were incubated with in vitro translated DLC1/PIN (amino acids 1–89), and binding was analyzed by GST pull-down assay. FIG. 2B: Identification of the DLC1/PIN region that is involved in the binding of Pak1. GST-fusions of various lengths of DLC1/PIN were used in the GST pull-down assay using ^35S-labelled Pak1 (amino acids 1–545). FIGS. 2C–2G—Pak1 phosphorylation of DLC1/PIN. FIG. 2C: In vitro kinase assay using GST-DLC1/PIN as a substrate and purified bacterially expressed Pak1 as an enzyme. MBP was used as a positive control. FIG. 2D: ZR75R cells stably expressing T7-DLC1/PIN were labeled in vivo with ^32P-orthophosphate, serum starved, treated with EGF or HRG, and immunoprecipitated and phosphorylation status of DLC1/PIN was visualized by autoradiography. […] Cells were metabolically labeled with ^32P orthophosphate, treated with or without EGF (1 nM) and phosphorylation of T7-DLC1/PIN was analyzed by immunoprecipitation. […]

For the next test, the system named is DLC1 promoter. Briefly: DLC1 promoter luciferase reporter. In kind it is cell-based, human. The conditions noted are these: MCF-7 cells, expression of inhibitor. Here is the method: FIGS. 21A–21J—Estrogenic signals upregulate DLC1 expression via Pak1 pathway. FIG. 21A: DLC1 upregulation by E2 or Tam. MCF-7/Tam-sen, MCF-7/TAMR1 and Ishikawa cells were treated with E2 (10^−9M) or Tam (10^−9M) for 24 h, and cell lysates were assayed for DLC1 and Pak1 protein expression. FIG. 21B: Upregulation of DLC1 mRNA in MCF-7 cells treated with different doses of E2 for 24 h. FIG. 21C: Effect of different periods of E2 treatment and cycloheximide (CHX) and Actinomycin D (ACTD) treatment on the ability of E2 to upregulate DLC1 mRNA in MCF-7 cells. FIG. 21D: DLC1 mRNA and protein levels in MCF-7/DA-Pak1 cells by Northern and Western blotting. FIG. 21E: DLC1 mRNA and protein levels in MCF-7/DN-Pak1 cells by Northern and Western blotting. FIG. 21F: Downregulation of DLC1 protein expression in MCF-7 cells treated with Pak1-siRNA for 24 h. FIG. 21G: Modulation of DLC1 promoter (1245 bp) luc activity by the expression of wtPak1 or DN-Pak1. MCF-7 cells were transfected with DLC1-luc and transfected with either wtPak1 or Pak1 inhibitor 83-149 and luc activity was measured after 24 h. FIG. 21H: Upregulation of DLC1 promoter luc activity following pak1 induction in MCF-7/DA-Pak 1 cells. FIG. 21I: Downegulation of DLC1 promoter luc activity in MCF-7/DN-pak1 cells. […]
(Reporter assays use an easily measured gene product as a stand-in for the process of interest.)

Another test concerns SKBR-3 cells. Nature of the test: Pak1-mediated macropinocytosis, vesicle formation by confocal microscopy. In kind it is cell-based, human. Here is the method: FIG. 3—Requirement of DLC1/PIN in Pak1 mediated macropinocytosis. SKBR-3 cells were cotransfected with RFP-DLC1/PIN and GFP-Pak1 (upper panel), RFP-DLC1/PIN-S88A, and GFP-Pak1 (middle panel) and RFP-DLC1-1-66, and GFP-Pak1 (lower panel). Vesicle formation and localization of GFP and RFP proteins were analyzed by confocal microscopy. Ten randomly selected fields were analyzed for each condition. The experiment was repeated twice with similar results. Quantitation of vesicles formation was done using the following scoring system. −, cells containing 0–9 vesicles; +, cells containing 10–20 vesicles; and ++, cells containing >20 vesicles.
Requirement of DLC1/PIN in Pak1 mediated macropinocytosis. […] The inventors have used the fluorescein isothiocyanate (FITC)-labeled Dextran as a marker of endocytosis using a well-established dextran beads uptake assay (Dharmawardhane et al., 2000). […]
SK-BR3 cells were cotransfected with RFP-DLC1 and GFP-Pak1 (upper panel), RFP-DLC1-S88A and GFP-Pak1 (middle panel), and RFP-DLC8-1-66 and GFP-Pak1 (bottom panel). Vesicle formation and localization of GFP and RFP proteins were analyzed by confocal microscopy. Ten randomly selected fields were analyzed for each condition. […]

In a further test the test system is Human dendritic cells. Briefly: Macropinocytosis in dendritic cells, FITC-dextran uptake. Format: cell-based. The conditions noted are these: expression in human dendritic cells. How it is done: FIG. 16—DLC1 is required for macropinocytosis in dendritic cells. Human dendritic cells were plated on cover sips in 6-well tissue culture plates, transfected with RFP-DLC1 wild type or DLC1-1-66 mutant lacking Pak1 binding and phosphorylation sites. After 12 hours, FITC-dextran was added to the culture medium for 20 min and cells were fixed and stained with Topro-3 (a DNA dye) and analyzed by confocal microscopy for RFP-DLC1 (red) or RFP-DLC1-1-66 (red) and FITC-dextran (green). White arrows point to RFP-DLC1-1-66 transfected cells and red arrows point to cells transfected with RFP-DLC1.
Human dendritic cells were plated on cover slips in 6-well tissue culture plates, transfected with RFP-DLC1 wild type or DLC1-1-66 mutant lacking Pak1 binding and phosphorylation sites. After 12 hours, FITC-dextran was added to the culture medium for 20 min and cells were fixed and stained with Topro-3 (a DNA dye) and analyzed by confocal microscopy for RFP-DLC1 (red) or RFP-DLC1-1-66 (red) and FITC-dextran (green). White arrows point to RFP-DLC1-1-66 transfected cells and red arrows point to cells transfected with RFP-DLC1.

For test [1], the system named is ER transactivation (ERE-luc). Nature of the test: ERE-luc transactivation assay. The conditions noted are these: compared to the wild type DLC1. Format: cell-based, human.
Experimental: MCF-7/DA-Pak1 cells were transfected with ERE-luc, treated with or without Dox for 24 h and then with or without E2 (10^−9M) and/or Tam (10^−8M) for 24 h, and ERE-luc activity was measured. […] FIG. 20D: MCF-7/TAM-Sen and MCF-7/TAMR1 cells were transfected with ERE-luc and treated with E2 or Tam for 24 h and ERE-luc activity was measured. […] FIG. 20L: Ishikawa cells were cotransfected with Pak1 siRNA control or Pak1 siRNA wt and treated with or without Tam (10^−8M) for 24 h and ERE-luc activity was measured.
Ishikawa and MCF-7/TAMR1 cells were transfected with control or Pak1 siRNA for 48 h and then with ERE-luc for 24 h and treated with E2 (10^−9M) for 24 h and ERE-luc activity was measured. […] Ishikawa cells were treated with control or and Pak1 and DLC siRNA for 48 h and then transfected with ERE-luc and treated with Tam (10^−8M) for 24 h and ERE-luc activity was measured.

B1: […] Pak1 auto inhibitory fragment used as an inhibitor (Pak1 amino acids 83–149) (protein, UniProt Q13153 83-149, looked up, fragment)
chain: HTIHVGFDAVTGEFTGMPEQWARLLQTSNITKSEQKKNPQAVLDVLEFYNSKKTSNSQKYMSFTDKS
In the case of B1, in the test with DLC1/PIN, the “EGF-stimulated DLC1/PIN phosphorylation” value was “completely blocked”. The DLC1 promoter activity result in the test on DLC1 promoter is “suppressed”.

B2: DLC1-66 peptide: SEQ ID NO:11; DLC1/PIN mutant, amino acids 1–66, lacking the C-terminal 23 amino acids (Pak1 binding and phosphorylation sites) (protein, listed as Homo sapiens)
chain: MCDRKAVIKNADMSEEMQQDSVECATQALEKYNIEKDIAAHIKKEFDKKYNPTWHCIVGRNFGSYV
Consider B2, for which the “transfected cells in which formation of vesicles was completely blocked” value in the test on SKBR-3 cells (cotransfected with GFP-Pak1) is on record as “more than 80%”. For the same molecule, the macropinocytic functions result with SKBR-3 cells (expression in human breast cancer cell line SKBR3) and with Human dendritic cells was “blocks macropinocytic functions” throughout.

B3: DLC1 1-68R mutant: DLC1 mutant lacking amino acids 67–89, behaves as a dominant-negative (protein, UniProt P63167 1-66, looked up, fragment)
chain: B2 chain
As to B3, the “ERE-transactivation in the presence of tamoxifen” value in test [1] is on record as “reduced ERE-transactivation”.

These data come from patent publication US7067633B2, “Targeting cellular entry, cell survival, and pathogenicity by dynein light chain 1/PIN in human cells” (Board of Regents, The University of Texas System, priority 2003, dated 2006).
